Measured values as given in publication PMC9360449, “Programmable RNA targeting by bacterial Argonaute nucleases with unconventional guide binding and cleavage specificity”.

Legend:
[1] = system: PnyAgo WT (Pedobacter nyackensis); assay: filter binding; settings: 10 mM Tris-HCl pH 7.9, 100 mM NaCl, 5 mM MgCl2 (or none), 5% glycerol, 100 ug/ml BSA, 37 C
[2] = system: PnyAgo WT (Pedobacter nyackensis); assay: competition; settings: filter binding, 100 nM pAgo; 5'-OH; 10 mM Tris-HCl pH 7.9, 100 mM NaCl, 5 mM MgCl2 (or none), 5% glycerol, 100 ug/ml BSA, 37 C
[3] = target: T1, PliAgo WT (Pseudooceanicola lipolyticus, UniProt A0A2M8J4C7 1-789); assay: X-ray crystallography; no Mg2+; settings: protein: recombinant; tags: N-His6; single strand
T1 sequence: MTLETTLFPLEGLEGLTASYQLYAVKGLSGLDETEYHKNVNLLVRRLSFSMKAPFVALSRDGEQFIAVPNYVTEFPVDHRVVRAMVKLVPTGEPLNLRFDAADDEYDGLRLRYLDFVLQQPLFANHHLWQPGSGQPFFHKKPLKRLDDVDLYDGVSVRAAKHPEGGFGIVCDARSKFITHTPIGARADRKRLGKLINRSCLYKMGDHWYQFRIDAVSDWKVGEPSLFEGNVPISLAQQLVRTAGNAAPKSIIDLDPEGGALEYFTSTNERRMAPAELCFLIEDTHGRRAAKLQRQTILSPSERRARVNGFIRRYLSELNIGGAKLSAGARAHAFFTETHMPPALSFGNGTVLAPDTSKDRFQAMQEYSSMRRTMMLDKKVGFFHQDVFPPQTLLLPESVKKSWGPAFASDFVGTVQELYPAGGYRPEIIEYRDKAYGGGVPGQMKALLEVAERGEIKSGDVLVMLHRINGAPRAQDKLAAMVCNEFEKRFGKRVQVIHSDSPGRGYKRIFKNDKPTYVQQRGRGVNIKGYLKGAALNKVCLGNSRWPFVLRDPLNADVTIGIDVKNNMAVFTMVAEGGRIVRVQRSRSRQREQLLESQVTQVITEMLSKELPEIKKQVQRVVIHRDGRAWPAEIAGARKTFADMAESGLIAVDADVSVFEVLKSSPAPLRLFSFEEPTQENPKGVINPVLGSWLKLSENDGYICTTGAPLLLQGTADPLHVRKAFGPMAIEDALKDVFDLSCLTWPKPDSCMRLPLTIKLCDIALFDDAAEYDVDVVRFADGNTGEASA

[4] = target: T1, PliAgo WT; assay: X-ray crystallography; 10 mM Tris-HCl pH 7.9, 100 mM NaCl, 5 mM MgCl2 (or none), 5% glycerol, 100 ug/ml BSA, 37 C; settings: protein: recombinant; tags: N-His6; single strand

## GTTAGACTTTAAGTCAAT / UUUAUCAAAAAGAGUAUUGACUUAAAGUCUAACCUAUAGGAUACUUACAG [guide DNA / G-target-RNA]
[1]; guide-loaded, 5'-phosphate on guide
  Kd: 7.5 nM

## GTTAGACTTTAAGTCAAT [5'-OH guide DNA (G-guide)]
[2]
  binding signal (fold Kd increase vs 5'-P guide): 12

## GTTAGACTTTAAGTCAAT [5'-P guide DNA (G-guide)]
[1]; 5 mM Mg2+, 5'-phosphate
  Kd: 31 nM
[1]; no Mg2+, 5'-phosphate
  Kd: 390 nM

## GUUAGACUUUAAGUCAAU [guide RNA (G-guide-RNA)]
[1]; 5 mM Mg2+, 5'-phosphate
  Kd: > 1000 nM

## TTACTGCACAGGTGACGA (ssDNA, 5'-phosphate) [3D-guide P-gDNA]
[3]
  binding result: binds

## TTACTGCACAGGTGACGA (ssDNA, 5'-OH) [3D-guide OH-gDNA]
[4]
  binding result: binds
